Consider one substance from paper doi:10.1101/2023.09.14.557733.

This assay concerns the target FgSte2-yellow fluorescent protein (F. graminearum). The experiment in a line: FRET or BRET. (Bioluminescence resonance energy transfer reports proximity on the nanometre scale.)

As to FgSte3-Nano luciferase (receptor), the BRET50 (galactose concentration for donor induction) came to 2 % galactose, the mBRET came out at 110 mBRET and the netBRET was > 0.1 netBRET.
